Assay: protease stability score; higher = more stable; yeast display proteolysis, trypsin and chymotrypsin;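 note: relative to predicted unfolded state with 0 unfolded-like and 1 meaning tenfold more protease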

| Sequence | protease stability score |
| --- | --- |
| DEHREFAKHVLEALVRALETGDEDTIRELFDPNYRIEIGDKTVIGRKYWELFIRRVDHIEVHIIIRDFDVQGNKVIIRGDSHIHLNYDGRTLDIQHHVNFVIRKVDGKWVFHSEHFI | 1.79 |
| DEHREIARRHTEVWWKLLLTGDEHLLRELADPHVRLETEHEEVHGREEVVRFLTEEIMKVKNIRLELKRIEVQGDKIDVEGTRHIDGVTIRVILYIHKINGRWVVQQIQLD | 1.29 |
| DEHRELEERMHELIQKANETGDWERWMELADPHTRLIVGDKEFHGMERSYEHILELFRRLGVERVEVRIERRDEQGEKINLDVIIIIGDKTIRLILIIYKVDGRWLLRSVEIR | 1.63 |
| DEHRELIKEMLERFERSLRTGDEHIQTEMMDPDAKIDINGVELHGRDWASRYIQKYKNVRIEVRTITIQGDKVDIHSTIIIGDKHHSMIIHARKVDGKWVLEEMWVE | 0.613 |
| DEHRESLETALEIEIETMLTGDEDSFKRLADPHYRLDVNGVKYHGREAVRVYLEQFDYVEHIVSKDVLVQGDKVRWDVQLDGKYNGQRRRVRVDIISRKINGRWILEEIRIK | 0.748 |
| DEHRKHAEDIFRLWLKAVKTGDEEHILDLMDPHVRLIILVGDKEIHLHGREEMKKENERLRHEWGVDRIRLEITRLDVQGDKIHSDGIDIFNGRNFRVKHHMKVVNGRVEEIKIEFE | 0.462 |
| DEHRKLIEELAEKLIEALWTGDERRIRELADPNVRMDYGEFKIHGRDLMVETLKHEMKKFKNVRLINHHVTVQGEFINIDMEVRFDGVSHRVEHNWDVVNGVVKEVRIEKN | 1.09 |
| DEHRRELKEAIEMMLTALYTGDEKILLELIDPNTRLDVNGRELHGRDDWVEETRRIKNLKFHVHHIDVQGEKIHVDGLVIFNGRERRVHYNAEKYDGRWILTHINVR | 1.22 |
| DEHTDAVETTWKRLLEDERTGNEDSLERLADPNYRVIINGKHYHGMEHSLHILSEWRITDHEIKDVEIQGEKAHIDGRFNGIIDGKHLNIHVLILIEKVDGRWIIKSVIFK | -0.096 |
| DEHTDMTRRLAELFRHLIETGNWKELTKLADPNMRLEVGDKEMHGREKLAELWRRIKNVRISIRRVEVQGEKVHLDLELDVDGQRQKFSEHIDIVDGVMRDVNVQWE | 2.12 |
| DEHTDYIREILRLLSEVVRTGDEDSLRRLLDPDARIVINGVDLIGMEHWFRLMFEIRHFAEDSKLEHSEVQGDKVIAHGRYHGEYEFDGRRRRHDTEVEMHVHKIDGRWYVRSLSIR | 1.72 |
| DEHTEDTRHLEEFMLRAIKTGDEHILKRLMDPNARNEQGDKHQHGMEIIAEEWSRIKNVKVIFHRVRIQGDKIDVDGELIVNGVTMRVEFYSRKIDGRWVIHSVHFE | 1.17 |
| DEHTEEAKHWVTRFIHALSTGDFEQIERLADPHVRVEIGDKEIHGMEFLSEHVLKFKGIRTNIRHIEIHYYDGRVNVEVDIDIHIGDKTVNSELHIHIEKVDGRWVITSLHIRTR | 1.46 |
| DEHTEHSKKLADLIMEWLKTGNEEILRKRMDPNTKIHIEVDGREENTHGWEEFERWLKELGIKHFELKHVHIQGDKSFVDGTLEVNGQRRRIIFIFIVVDGRIQSIRVIVI | 2.12 |
| DEHTHEAHKFLREYWSNLQTGDEEKIINLVDPRVRMIINGKELHGREEFSKALHDEYRRMGMTIQTFTLQHLEIQGEKVHADVEIITHYDGRHTSIHLHLIVQKINGRWLMREVEIR | 1.32 |
| DEHTHEIEHMLRHFLETLETGDEERYDRLADPHTRIDIGDKHLHGREKAQKLWRHWWKRFDHIHHLHIHHLEAVDGVNHVELREDIRVDGRRVIIRSLLILVVIDGRLREVRVEER | 0.496 |
| DEHTKEMKHFLKEWLHNFFTGNEERWAHLADPHVRSDINGVELHGWDLLFRKMRKHREDLGAPHIRDFHIHSMHVINGVIHIDGEIDVDVNGVRIRSRVEIHLNVVNGRNKSEHYHHI | 0.68 |
| DEHTKFLEKLLRDWMESVLTGDEHLIKRYADPNVRLDFNGQQFHGRDSMVHLLKEWRIKHFKLDSFFAIDGVTFVDGESRGEVNGQETENRLHVEIFVVNGKVTHVKIRIL | 1.68 |
| DEHTKLLEDLVKILLFIRKTGDEDTFNKLFDPNVRLVQGDKTYHGRETFNKTMREWRIHHFEIKRSHFIGEWAEIDGHEDGDINGQKIRTDVEIILIIIDGRIKSIEYRPL | 0.929 |
| DEHTRLMDRVSKELMHYRRTGDEHSLDHLLDPHVRLDQGDWEKHGMEEYIEFVRRVKNVKLRIHDITVDIVNGVVIVFIDGILHVNGVDITTRIHIYFRKVNGVWLVESLRYEVG | 0.373 |
| DEHTSRLERLAHLFFESWITGDFDALLKYLDPNVRIEQGDKHIHGREVMFEHLERLLKHWWFHEHRLRDVKSVNGVSHLHVHQRNEINGVELRYDFHIHLYIVDGRLKSMEFRIS | 1.07 |
| DEIDEAIIEFFRLMLEWNETGDEEYIDTLIDPHTQLKIIYGDKDREFIGREEYFKIVLEWRIKEVRIHSIHTQGNKLNIDGEINGNIDGRDTKTRINIHFIVVNGRLKTITLRFE | 2.43 |
| DEIDEISKQMVRDFVHSWRTGDWKVLRELADPHALIIFNGREFHGWEHILRVFLELIRRYKNARVDIEEVIVQGDKIHIHLRIDQGDKSHTVNIHIDIIDGKLKRLEIDVT | 2.27 |
| DEIDELMEMMARILIRLWQTGDEETWSRLADPDVRVTIGEFHTHGMERALLIIQEIRRHWRIHHIHIHDMRVFENRSRVNGKVDGEIDGQKDVRETRIEVVLIDGRLQEVRVKTK | 0.91 |
| DEIDERLHFLMKRVLHLWETGDWDMWMNYADPHVRHEIIIGDKRYSLHGREEYAEELLRHHRHIRLHTIHITHIDVVNGRVELNGRVNGDINGQHVDVELYVELKVVDGRIESERMEFR | 0.412 |

| Sequence | protease stability score |
| --- | --- |
| DEIDHRAREVAERILKSMLTGDFDTLRELMDPHVRVILSVNGRENHTVGREWFAHVVKEWIDRVDVHQIDVERVELQGEKVHMDTNLRIHYGDKSITRKTEIIIDVVDGRVHYVRFIIR | 2.52 |
| DEIDNELKTALRRLLHTWMTGDEDSLERLADPNVRFHQGDKDMHGREHMVKWFKEMIDRFPNLRIHDFIISEVRFFDGKAELIGTVLRTYGDKTDEVDFTIISTKIDGQWRIHEIRIN | 1.26 |
| DEIEDELRTVYELTVKALTTGNEDLLRNYLDPDTRFIIDGRDLHGMDEINELWREWRIHIHDTKIHSIRTQGNFADVHGRLHGTFIFNGKIEHTTREVRLIFVKVNGRWVINSVVIR | 1.63 |
| DEIEDHMREVREQLLRDLTTGDWKKMREMLDPHVRIHIGDFHDHGRESAEEWLRKFKGLTLRIHDVRVKIIDGRALVENDGELTYDGRRHRVRIHVYVTKVDGVWMVETLEIRIH | 1.15 |
| DEIEEDMRKSIEDVIKAHLTGDEKTYRRLFDPHVRIDIDGVDFHGWEESRRMLQEIRISIEDWKIERMEIQGDKIHIDSRVDLTVYIDGKKERDTIERHIILVKFDGRWTIESVDFR | 1.37 |
| DEIEEEAKEMTKRILEDIKTGDEDSIFKLMDPNVKLVVGEKIHIGRETASKFFRKHWEDLGITRVESHLRTTHLIDGRVHVHSETNWNGVRIEVIIEIEKVNGRWVIREIHIHMH | 1.29 |
| DEIEEEVRKFAEIHSRDLMTGNFESFREQADPHVRVIINGREFHGWHFLFHWLQEMRIHRVRIEDVRVYGDKAILDTRVESHVDGRTFDLEFKLVLSKVDGRWRVHQIILR | 1.11 |
| DEIEEIAREIAKELHHLILTGDEDRLNELMDPNVKFESIVNGRRIESIGRENVKEVLRRLLEKLGLDRFSFIRRDIKYFDGVIHIFGQLEIDGVRHETEIIIFIVNGKVKSIRIRIQ | 1.14 |
| DEIEEKIETHIKILLHASRTGDWELNSHNADPHTRIDIDGVELHGMEHFFTIMKEMRMKEYTLHHIEVQGEKIRIRGELRGEWDGKEEVVDVILIIVKIDGKWLIKEVRFR | 1.07 |
| DEIEELSNRLLELLRHFLQTGDEDMLRKLMDPHVRIDIDGQDFHGRESAVKLLRFWIDHMRWKDRRLRHVRIQGNFIEIDTIEHGEINGREHDLTTHIIASKVNGRWVLHSILFR | 1.81 |
| DEIEEQSRRALHEYINKILTGDEKSLTDLMDPDARLIVGDKEVHGRKLVHEWMSQWTEHIRIKHVHLHDIEIIGEKVHLDMRLHGIINGKETEHKVELHMYKINGKWIIHTVKIL | 2.04 |
| DEIEERTKELMKIDLELLETGDEETLLHLLDPHVKIITWINGRRVQRVGRHIWVHWLRYLGIDHLHVDDVEVQGDKITFDMTIEINGRTHKAVLRSQVVDGKITSLEIEVR | 1.63 |
| DEIEETIKHLMEEWETSMQTGDEDRIKELLDPHARLEIGEWEFIGRERVAHFLSRADHSEYRIRRIRMIGDKIDIRLEVRLHVNGREIRTETHLIILKINGRWFFKSTHIT | 1.62 |
| DEIEEVFREYTERIVDMWKTGDEELTNRNMDPNARMRIDVNGRDLELHGRERWIEHFRELGIKYEEIRDVRLRLVGDKANLEIDGEVDVNGQKHHTSLIIHVEKINGKWVISRIIFFIR | 1.2 |
| DEIEHAVRLAYERWLHEFETGDEEETLRNADPDTMIVINGRHLHGREHFTRWLKRIDHQHMHHEDFTHIDHQGDKLHLNVHVSIEVEINGVRYVLEHENEIVQTKIDGQWILTYIIIR | 1.25 |
| DEIEHESEEILRMWLHAIKTGDEEFLKQYIDPHAKLDINGVEFHGREHIVRFIVELRMHDHRVQDSRKVGNKVILHTRVDSIIGDKRIDTHVTIIVRKIDGKWRLEEYRVS | 2.55 |
| DEIEHEVERVVREWMRAYITGDEDTLQHLLDPHVLSVIDGVNIHGMENVTEYLRRHLEKIKNVQIEDMRIHRLDIQGNKLDLDTRLHITFNGVPEVLETRLILTKIDGKWWMHQVIIN | 2.42 |
| DEIEHHDRIIHHLTLHAFFTGDESITEHLADPDVRLDIVQGDKFNHVIGREMVVQWLEEWWRRVKNARFRVHRVEVINGQVNLRVEVDINGKRVDFTLIIIVIDGKIRSQEVIFH | 1.67 |
| DEIEHLIRRIMEEIVHVFETGDEEKLEELMDPNTIFIIGDKRYVGREAVDVLLRRADVMTRFHIKSMRTVGDKIDLNTSIHVHFDGVHREIDTHVIARKVDGRWHWDSVRVE | 1.2 |
| DEIEHLVHWAVEVYRHVLETGNESDLFRLFDPHVKLDVNGKEIVGREDVIEFISREIKQFDHVKLRIHRIDFQGDFVEVEGRLIVRQGDKEIRHDVRIYAEKIDGQWNVKSLSFR | 2.48 |
| DEIEHMIHEIFERWIKAWLTGDWRTIEKLFDPDVRVEINGVEIIGRELMSKVLIRKYDEMRSRVKLESEHAQGDKAHFNVNIILHIGDKTIERRSRIHIRIYNGRIHEVRVEED | 2.4 |
| DEIEKELTDVFWEWLHLHITGDEDRLRDLMDPDVRLIYGDKTAVGREEFEKMWRELRHRFDHIRNVQIHDKRIVGNKLEMDFNFDHEVNGRREHTRVKIVLITINGKLHAFRIEVE | 1.4 |
| DEIEKEMLKRARDILENWVTGDEDEFNRLADPNVRFELVYGDKSHSHHGMENLKKWLEEWTKRVDHFDLKIKSQRVVGDKAETETKLILNYDGRRFEHDTRIDVVVVNGRIKQIRVEIR | 1.59 |
| DEIEKESERVMEKYFEDFITGDWETMWRQVDPHVKFRIGDKHFHGREQATRVYKEFLDELGVKVRRIHDFEFTLFDGRAYVHLDSTLRVNGRDHRLHITIIVEKINGRWRLHEFELRLH | 0.367 |
| DEIEKHHRELIELLFHWWHTGDFDSFHRFADPDVKLDFNGVEIHGRERANEFMTRLKEEIRIDDVKLERVQVIDGRMIIHGRRDGNVNGQKEDREVELYVIAINGRIKSVEIRIR | 1.71 |

From the NTF2 design screens of Basanta et al. (2020)
